Literature values in publication PMC6387150.

Target: IL-18 (Homo sapiens) (UniProt Q14116)
Sequence (Q14116 37-193): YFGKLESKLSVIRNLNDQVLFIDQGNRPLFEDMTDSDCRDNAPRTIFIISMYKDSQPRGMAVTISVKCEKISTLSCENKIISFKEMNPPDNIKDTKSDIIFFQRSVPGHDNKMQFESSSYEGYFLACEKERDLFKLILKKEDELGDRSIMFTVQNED

Sequence of IL-18BP (O95998 31-194): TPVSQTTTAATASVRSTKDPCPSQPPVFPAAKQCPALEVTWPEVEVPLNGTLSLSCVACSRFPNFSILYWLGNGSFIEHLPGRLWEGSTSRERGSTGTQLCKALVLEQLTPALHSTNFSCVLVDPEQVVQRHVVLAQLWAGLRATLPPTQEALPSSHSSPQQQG

## IL-18BP (from UniProt O95998)
  Kd: 0.4 nM
